In article PMC8794819, “Tuning protein half-life in mouse using sequence-defined biopolymers functionalized with lipids” (Proceedings of the National Academy of Sciences of the …, 2022) one finds Kd data, which are given here for one molecule.

Non-standard residues stand in square brackets, D forms with d. alkynyl palmitic acid = FA, attached to pAzF by click chemistry; Phe(4-N3) = [N-]=[N+]=Nc1ccc(C[C@H](N)C(=O)O)cc1

One test addresses T1, mouse serum albumin (mouse, UniProt P07724 25-608).
T1 construct: serum albumin, mouse, from mouse serum; also called MSA; albumin from mouse serum; source: bought: Sigma, catalog #A3139 (albumin from mouse serum)
In words: SPR; Biacore T200; HSA or MSA immobilised by amine coupling on CM5 chip (∼1,300 to 12,800 RU); ELP-GFP derivatives injected, twofold dilution series ∼0.28 to 60 µM; PBS running buffer; 60-s association, 600-s dissociation; steady-state affinity binding model; mean of four to eight independent measurements. The settings on record: both partners purified.

A further test addresses T2, human serum albumin (human, UniProt P02768 25-609).
T2 construct: serum albumin, human; also called HSA; source: bought: Sigma, catalog #A3782
The test is described as above. The note with it: both partners purified.

T1 sequence (P07724 25-608): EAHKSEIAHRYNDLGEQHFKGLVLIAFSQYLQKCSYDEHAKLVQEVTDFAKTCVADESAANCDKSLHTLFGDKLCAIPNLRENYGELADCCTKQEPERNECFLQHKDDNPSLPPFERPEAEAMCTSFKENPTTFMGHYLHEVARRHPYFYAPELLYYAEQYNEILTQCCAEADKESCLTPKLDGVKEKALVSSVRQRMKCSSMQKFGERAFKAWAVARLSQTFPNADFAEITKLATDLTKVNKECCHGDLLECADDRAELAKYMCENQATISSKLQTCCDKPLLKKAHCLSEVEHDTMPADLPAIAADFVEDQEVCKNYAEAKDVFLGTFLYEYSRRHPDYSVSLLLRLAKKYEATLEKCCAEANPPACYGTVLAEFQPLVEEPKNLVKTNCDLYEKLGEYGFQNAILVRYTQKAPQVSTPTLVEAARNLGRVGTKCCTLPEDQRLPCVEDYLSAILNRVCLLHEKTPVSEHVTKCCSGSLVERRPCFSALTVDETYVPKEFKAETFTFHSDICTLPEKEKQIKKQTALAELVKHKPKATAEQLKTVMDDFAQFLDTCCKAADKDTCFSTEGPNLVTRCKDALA

B1: ELP(10FA)-GFP, ISAz treated (other)
chain: VPGAGVPG[Phe(4-N3)](alkynyl palmitic acid)GVPGGGVPGAGVPG[Phe(4-N3)](alkynyl palmitic acid)GVPGGGVPGAGVPG[Phe(4-N3)](alkynyl palmitic acid)GVPGGGVPGAGVPG[Phe(4-N3)](alkynyl palmitic acid)GVPGGGVPGAGVPG[Phe(4-N3)](alkynyl palmitic acid)GVPGGGVPGAGVPG[Phe(4-N3)](alkynyl palmitic acid)GVPGGGVPGAGVPG[Phe(4-N3)](alkynyl palmitic acid)GVPGGGVPGAGVPG[Phe(4-N3)](alkynyl palmitic acid)GVPGGGVPGAGVPG[Phe(4-N3)](alkynyl palmitic acid)GVPGGGVPGAGVPG[Phe(4-N3)](alkynyl palmitic acid)GVPGGG
modifications: not fully specified (C-terminus); also: pAzF coupled to alkynyl palmitic acid by click (triazole)
With B1, the Kd came to 2220 nM in the test with mouse serum albumin and 1640 nM with human serum albumin.

In general, Kd refers to the free concentration of one partner at which half of the binding sites on the other are occupied at equilibrium, for simple one-to-one binding.
